# From PMC13215203, “Phosphorylation remodels the mitotic centrosome matrix to generate bipartite γ-tubulin complex docking sites” (Science Advances, 2026)
# Experiments:
# [1] = target: T1, untagged SPD-5 amino acids 101-473, not phosphorylated (C. elegans, UniProt P91349 101-473); test: pull-down; MBP pull-down: purified SPD-5 fragments mixed (2.0 μM) with or without PLK1(T194D) in kinase buffer, then 75 nM each with anti-MBP antibody in lysis buffer 2 h at 4°C and protein A beads 1 h; M6HH-tagged fragment is the bait; immunoblot; conditions: both partners purified
# T1 construct: also called fragment containing the γTuNA-In and PRGB2; source: E. coli BL21(DE3) pLysS, purified (glutathione agarose, cut from GST with PreScission or HRV-3C protease)
# T1 sequence (looked up): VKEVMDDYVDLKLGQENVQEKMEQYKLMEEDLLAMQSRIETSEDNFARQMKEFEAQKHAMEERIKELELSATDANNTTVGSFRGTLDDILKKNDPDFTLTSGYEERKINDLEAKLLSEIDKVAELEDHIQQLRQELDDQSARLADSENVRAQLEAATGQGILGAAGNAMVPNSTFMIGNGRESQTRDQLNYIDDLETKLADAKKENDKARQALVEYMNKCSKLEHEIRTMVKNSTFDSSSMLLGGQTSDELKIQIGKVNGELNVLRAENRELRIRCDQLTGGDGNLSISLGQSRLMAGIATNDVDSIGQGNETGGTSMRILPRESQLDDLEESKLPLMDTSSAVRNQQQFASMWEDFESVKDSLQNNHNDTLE
# [2] = target: T2, M6HH-tagged SPD-5 amino acids 1-113 (PRGB1), not phosphorylated (C. elegans, UniProt P91349 1-113); test: as above; conditions: both partners purified
# T2 construct: source: E. coli BL21(DE3) pLysS, purified (Ni-NTA)
# T2 sequence (looked up): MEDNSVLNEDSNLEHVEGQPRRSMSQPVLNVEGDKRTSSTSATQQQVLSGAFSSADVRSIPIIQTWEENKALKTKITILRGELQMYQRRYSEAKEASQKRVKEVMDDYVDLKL
# [3] = target: the molecule itself; test: SEC-MALS; Superose 6 increase 10/300 or Superdex 200 increase 10/300 in 20 mM tris-HCl pH 7.5, 50 mM NaCl, 5 mM EGTA, 2 mM MgCl2, 1 mM DTT; 120 μl of ~2.0 mg/ml protein loaded; with or without PLK1 phosphorylation
Binder,stoichiometry N [3],further results
"M6HH-tagged SPD-5 amino acids 1-101 (PRGB1), not phosphorylated (domain or fragment, C. elegans, UniProt P91349 1-101, looked up, source: E. coli BL21(DE3) pLysS, purified (Ni-NTA)) MEDNSVLNEDSNLEHVEGQPRRSMSQPVLNVEGDKRTSSTSATQQQVLSGAFSSADVRSIPIIQTWEENKALKTKITILRGELQMYQRRYSEAKEASQKRV",,binding result [1]: binds
"Halo-tagged SPD-5 amino acids 135-200, not phosphorylated (domain or fragment, C. elegans, UniProt P91349 135-200, looked up, source: E. coli BL21(DE3) pLysS, purified (Ni-NTA)) MQSRIETSEDNFARQMKEFEAQKHAMEERIKELELSATDANNTTVGSFRGTLDDILKKNDPDFTLT",,binding result [2]: binds
"M6HH-tagged SPD-5 amino acids 1-345, not phosphorylated (domain or fragment, C. elegans, UniProt P91349 1-345, looked up, source: E. coli BL21(DE3) pLysS, purified (Ni-NTA)) MEDNSVLNEDSNLEHVEGQPRRSMSQPVLNVEGDKRTSSTSATQQQVLSGAFSSADVRSIPIIQTWEENKALKTKITILRGELQMYQRRYSEAKEASQKRVKEVMDDYVDLKLGQENVQEKMEQYKLMEEDLLAMQSRIETSEDNFARQMKEFEAQKHAMEERIKELELSATDANNTTVGSFRGTLDDILKKNDPDFTLTSGYEERKINDLEAKLLSEIDKVAELEDHIQQLRQELDDQSARLADSENVRAQLEAATGQGILGAAGNAMVPNSTFMIGNGRESQTRDQLNYIDDLETKLADAKKENDKARQALVEYMNKCSKLEHEIRTMVKNSTFDSSSMLLGG",2,
"untagged SPD-5 amino acids 1-473, not phosphorylated (domain or fragment, C. elegans, UniProt P91349 1-473, looked up, also called SPD-5 N terminus; source: E. coli BL21(DE3) pLysS, purified (glutathione agarose, cut from GST with PreScission or HRV-3C protease; gel filtration)) MEDNSVLNEDSNLEHVEGQPRRSMSQPVLNVEGDKRTSSTSATQQQVLSGAFSSADVRSIPIIQTWEENKALKTKITILRGELQMYQRRYSEAKEASQKRVKEVMDDYVDLKLGQENVQEKMEQYKLMEEDLLAMQSRIETSEDNFARQMKEFEAQKHAMEERIKELELSATDANNTTVGSFRGTLDDILKKNDPDFTLTSGYEERKINDLEAKLLSEIDKVAELEDHIQQLRQELDDQSARLADSENVRAQLEAATGQGILGAAGNAMVPNSTFMIGNGRESQTRDQLNYIDDLETKLADAKKENDKARQALVEYMNKCSKLEHEIRTMVKNSTFDSSSMLLGGQTSDELKIQIGKVNGELNVLRAENRELRIRCDQLTGGDGNLSISLGQSRLMAGIATNDVDSIGQGNETGGTSMRILPRESQLDDLEESKLPLMDTSSAVRNQQQFASMWEDFESVKDSLQNNHNDTLE",2,
"untagged SPD-5 amino acids 1-473, phosphorylated by PLK1 (domain or fragment, C. elegans, UniProt P91349 1-473, looked up, phosphorylated in vitro by PLK1; predicted sites S5, S11, S170, T178, T198, T274, T335, S339, S340, also called SPD-5 N terminus; source: E. coli BL21(DE3) pLysS, purified (glutathione agarose, cut from GST), then incubated with PLK1 and ATP) MEDNSVLNEDSNLEHVEGQPRRSMSQPVLNVEGDKRTSSTSATQQQVLSGAFSSADVRSIPIIQTWEENKALKTKITILRGELQMYQRRYSEAKEASQKRVKEVMDDYVDLKLGQENVQEKMEQYKLMEEDLLAMQSRIETSEDNFARQMKEFEAQKHAMEERIKELELSATDANNTTVGSFRGTLDDILKKNDPDFTLTSGYEERKINDLEAKLLSEIDKVAELEDHIQQLRQELDDQSARLADSENVRAQLEAATGQGILGAAGNAMVPNSTFMIGNGRESQTRDQLNYIDDLETKLADAKKENDKARQALVEYMNKCSKLEHEIRTMVKNSTFDSSSMLLGGQTSDELKIQIGKVNGELNVLRAENRELRIRCDQLTGGDGNLSISLGQSRLMAGIATNDVDSIGQGNETGGTSMRILPRESQLDDLEESKLPLMDTSSAVRNQQQFASMWEDFESVKDSLQNNHNDTLE",2,
"M6HH-tagged SPD-5 amino acids 1-473, not phosphorylated (domain or fragment, C. elegans, UniProt P91349 1-473, looked up, source: E. coli BL21(DE3) pLysS, purified (Ni-NTA)) MEDNSVLNEDSNLEHVEGQPRRSMSQPVLNVEGDKRTSSTSATQQQVLSGAFSSADVRSIPIIQTWEENKALKTKITILRGELQMYQRRYSEAKEASQKRVKEVMDDYVDLKLGQENVQEKMEQYKLMEEDLLAMQSRIETSEDNFARQMKEFEAQKHAMEERIKELELSATDANNTTVGSFRGTLDDILKKNDPDFTLTSGYEERKINDLEAKLLSEIDKVAELEDHIQQLRQELDDQSARLADSENVRAQLEAATGQGILGAAGNAMVPNSTFMIGNGRESQTRDQLNYIDDLETKLADAKKENDKARQALVEYMNKCSKLEHEIRTMVKNSTFDSSSMLLGGQTSDELKIQIGKVNGELNVLRAENRELRIRCDQLTGGDGNLSISLGQSRLMAGIATNDVDSIGQGNETGGTSMRILPRESQLDDLEESKLPLMDTSSAVRNQQQFASMWEDFESVKDSLQNNHNDTLE",2,
